Square brackets hold non-standard residues; d marks the D form. dPhe(4-I) = N[C@H](Cc1ccc(I)cc1)C(=O)O; 2Nal = N[C@@H](Cc1ccc2ccccc2c1)C(=O)O; d2Nal = N[C@H](Cc1ccc2ccccc2c1)C(=O)O
How the values were obtained:
[1] = target: mouse melanocortin-3 receptor (mouse) (UniProt P33033)
[2] = target: mouse melanocortin-1 receptor (mouse) (UniProt Q01727)
[3] = target: mouse melanocortin-5 receptor (mouse) (UniProt P41149)
[4] = target: mouse melanocortin-4 receptor (mouse) (UniProt P56450)
[5] = target: mouse melanocortin-3 receptor (mouse) (UniProt P33033); remark: listed apart in the source
[6] = target: mouse melanocortin-4 receptor (mouse) (UniProt P56450); remark: listed apart in the source

mouse melanocortin-4 receptor (mouse), sequence (P56450 whole entry): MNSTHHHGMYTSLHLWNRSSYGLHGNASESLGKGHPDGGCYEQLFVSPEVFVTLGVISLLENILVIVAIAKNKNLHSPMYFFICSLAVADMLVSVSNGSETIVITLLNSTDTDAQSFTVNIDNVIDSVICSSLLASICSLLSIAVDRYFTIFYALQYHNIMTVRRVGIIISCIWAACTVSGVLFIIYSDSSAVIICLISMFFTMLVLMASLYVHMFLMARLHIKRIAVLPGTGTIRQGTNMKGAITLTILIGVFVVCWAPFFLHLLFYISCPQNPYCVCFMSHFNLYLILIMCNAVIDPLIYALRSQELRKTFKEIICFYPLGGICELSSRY
mouse melanocortin-5 receptor (mouse), sequence (P41149 whole entry): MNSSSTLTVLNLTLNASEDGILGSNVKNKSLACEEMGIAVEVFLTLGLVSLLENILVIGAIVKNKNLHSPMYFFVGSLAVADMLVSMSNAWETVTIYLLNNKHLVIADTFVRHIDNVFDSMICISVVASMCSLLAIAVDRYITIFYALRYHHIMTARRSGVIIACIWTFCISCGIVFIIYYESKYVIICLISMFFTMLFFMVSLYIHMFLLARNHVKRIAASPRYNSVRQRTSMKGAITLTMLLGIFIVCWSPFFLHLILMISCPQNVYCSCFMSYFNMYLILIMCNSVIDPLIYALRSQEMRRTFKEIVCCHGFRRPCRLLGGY
mouse melanocortin-3 receptor (mouse), sequence (P33033 whole entry): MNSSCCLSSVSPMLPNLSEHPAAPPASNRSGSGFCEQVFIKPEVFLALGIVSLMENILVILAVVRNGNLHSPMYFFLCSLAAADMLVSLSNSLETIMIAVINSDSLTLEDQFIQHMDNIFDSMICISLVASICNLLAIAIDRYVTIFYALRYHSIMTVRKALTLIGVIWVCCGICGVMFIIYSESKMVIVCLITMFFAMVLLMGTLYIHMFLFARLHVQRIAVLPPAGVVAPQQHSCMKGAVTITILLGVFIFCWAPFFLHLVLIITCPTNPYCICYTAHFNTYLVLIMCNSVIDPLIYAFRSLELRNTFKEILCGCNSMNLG
mouse melanocortin-1 receptor (mouse), sequence (Q01727 whole entry): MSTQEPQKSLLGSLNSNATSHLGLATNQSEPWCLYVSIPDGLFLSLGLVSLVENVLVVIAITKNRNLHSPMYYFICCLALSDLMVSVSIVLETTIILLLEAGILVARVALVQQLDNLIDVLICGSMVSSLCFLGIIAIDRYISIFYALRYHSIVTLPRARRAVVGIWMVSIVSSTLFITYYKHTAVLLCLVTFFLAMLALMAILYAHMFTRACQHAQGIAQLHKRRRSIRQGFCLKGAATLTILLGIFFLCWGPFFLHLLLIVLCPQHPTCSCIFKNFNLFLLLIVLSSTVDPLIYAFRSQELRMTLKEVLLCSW

Substance | agonist EC50, cAMP AlphaScreen [1] | % of maximal NDP-MSH response at 100 μM, cAMP AlphaScreen [2] | agonist EC50, cAMP AlphaScreen [3] | agonist EC50, cAMP AlphaScreen [4] | pA2, antagonism of NDP-MSH at mMC3R, Schild analysis, cAMP AlphaScreen [5] | pA2, antagonism of NDP-MSH at mMC4R, Schild analysis, cAMP AlphaScreen [6] | % of maximal NDP-MSH response at 100 μM, cAMP AlphaScreen [4] | % of maximal NDP-MSH response at 100 μM, cAMP AlphaScreen [1] | % of maximal NDP-MSH response at 100 μM, cAMP AlphaScreen [3] | % receptor activation relative to NDP-MSH (partial agonist), cAMP AlphaScreen [2] | apparent EC50 (partial agonist), cAMP AlphaScreen [2] | agonist EC50, cAMP AlphaScreen [2] | antagonist Ki = 10^-(pA2), NDP-MSH at mMC4R, cAMP AlphaScreen [6]
Ac-DNal(2’)-DNal(2’)-DNal(2’)-DLys-NH2 (peptide) | > 100 µM | 55% | > 100 µM | > 100 µM | < 5.5 | < 5.5 |  |  |  |  |  |  | 
Ac-DPhe(pI)-DNal(2’)-Nal(2’)-DLys-NH2 (peptide) |  | 40% |  | > 100 µM |  |  |  | 20% | 50% |  |  |  | 
Ac-[d2Nal]R[2Nal][dK]-NH2 | > 100 µM |  | > 100 µM | > 100 µM | 6.2 | 7.8 |  |  |  | 50% | 3.3 µM |  | 
Ac-[d2Nal]RW[dK]-NH2 | > 100 µM |  | > 100 µM | > 100 µM | 5.5 | 7.7 |  |  |  |  |  | > 100 µM | 
Ac-DPhe(pI)-Arg-DNal(2’)-Arg-NH2 (peptide) | > 100 µM |  | > 100 µM | > 100 µM | 6.9 | 8.3 |  |  |  | 65% | 0.4 µM |  | 
Ac-DPhe(pI)-Arg-DNal(2’)-DLys-NH2 (peptide) | > 100 µM |  | > 100 µM | > 100 µM | 7.2 | 8.6 |  |  |  | 30% | 3.5 µM |  | 
Ac-[dPhe(4-I)]R[2Nal][dK]-NH2 | > 100 µM |  | > 100 µM | > 100 µM | 6.8 |  |  |  |  |  |  | > 100 µM | 
Ac-DPhe(pI)-DNal(2’)-DNal(2’)-DLys-NH2 (peptide) | > 100 µM | 35% | > 100 µM | > 100 µM |  | 6.3 |  |  |  |  |  |  | 
Ac-DNal(2’)-Arg-DPhe(pI)-DNal(2’)-NH2 (peptide) |  |  |  |  | 6.1 | 6.5 | 30% | 40% | 40% |  |  |  | 
Ac-[dPhe(4-I)]RW[d2Nal]-NH2 |  | 45% | > 100 µM |  |  | 7.6 | 35% | 25% |  |  |  |  | 
Ac-[dPhe(4-I)]R[2Nal]R-NH2 | > 100 µM | 25% | > 100 µM |  | 7.8 |  | 25% |  |  |  |  |  | 1 nM
Ac-DPhe(pI)-DNal(2’)-DNal(2’)-Arg-NH2 (peptide) | > 100 µM |  | 0.23 µM | > 100 µM |  |  |  |  |  |  |  | > 100 µM | 
Ac-DNal(2’)-DNal(2’)-DNal(2’)-Arg-NH2 (peptide) |  | 30% | 0.13 µM |  | < 5.5 | < 5.5 | 25% | 35% |  |  |  |  | 
Ac-DNal(2’)-Arg-DNal(2’)-DLys-NH2 (peptide) | > 100 µM |  | > 100 µM | > 100 µM |  | 8.2 |  |  |  | 30% | 6 µM |  | 
Ac-DPhe(pI)-DNal(2’)-DPhe(pI)-Arg-NH2 (peptide) | > 100 µM | 40% | 0.13 µM | > 100 µM |  |  |  |  |  |  |  |  | 
Ac-Phe(pI)-Nal(2’)-Phe(pI)-Arg-NH2 (peptide) |  | 60% |  |  |  |  |  |  |  |  |  |  | 
Ac-DNal(2’)-Arg-DNal(2’)-DNal(2’)-NH2 (peptide) |  |  |  |  | 5.7 | 6.3 | 45% | 50% | 20% | 85% | 5 µM |  | 
Ac-DNal(2’)-DNal(2’)-Nal(2’)-Arg-NH2 (peptide) | > 100 µM | 55% |  | > 100 µM |  |  |  |  | 40% |  |  |  | 
Ac-DPhe(pI)-DNal(2’)-Trp-Arg-NH2 (peptide) | > 100 µM |  | > 100 µM | > 100 µM |  | 5.6 |  |  |  |  |  | > 100 µM | 
Ac-DPhe(pI)-DNal(2’)-Trp-DLys-NH2 (peptide) | > 100 µM | 65% | > 100 µM | > 100 µM | 5.7 | 6.6 |  |  |  |  |  |  | 
Ac-DPhe(pI)-Arg-DPhe(pI)-DNal(2’)-NH2 (peptide) |  |  |  |  | 6.3 | 6.6 | 40% | 40% | 65% |  |  | 1.1 µM | 
Ac-DNal(2’)-DNal(2’)-DPhe(pI)-DLys-NH2 (peptide) | > 100 µM | 20% | > 100 µM | > 100 µM | < 5.5 | < 5.5 |  |  |  |  |  |  | 
Ac-DNal(2’)-DNal(2’)-Nal(2’)-DLys-NH2 (peptide) | > 100 µM | 45% | > 100 µM | > 100 µM |  |  |  |  |  |  |  |  | 
Ac-[d2Nal]R[2Nal]R-NH2 | > 100 µM |  | > 100 µM |  |  | 8.8 | 30% |  |  |  |  | > 100 µM | 

More lines, now with the values ahead:

agonist EC50, cAMP AlphaScreen [1] | % of maximal NDP-MSH response at 100 μM, cAMP AlphaScreen [2] | agonist EC50, cAMP AlphaScreen [3] | agonist EC50, cAMP AlphaScreen [4] | pA2, antagonism of NDP-MSH at mMC3R, Schild analysis, cAMP AlphaScreen [5] | pA2, antagonism of NDP-MSH at mMC4R, Schild analysis, cAMP AlphaScreen [6] | % of maximal NDP-MSH response at 100 μM, cAMP AlphaScreen [4] | % of maximal NDP-MSH response at 100 μM, cAMP AlphaScreen [1] | % of maximal NDP-MSH response at 100 μM, cAMP AlphaScreen [3] | % receptor activation relative to NDP-MSH (partial agonist), cAMP AlphaScreen [2] | apparent EC50 (partial agonist), cAMP AlphaScreen [2] | agonist EC50, cAMP AlphaScreen [2] | antagonist Ki = 10^-(pA2), NDP-MSH at mMC4R, cAMP AlphaScreen [6] | Substance
> 100 µM | 40% | > 100 µM |  | 6.8 | 8.3 | 20% |  |  |  |  |  |  | Ac-[d2Nal]RWR-NH2
> 100 µM | 55% | > 100 µM | > 100 µM |  | 6.7 |  |  |  |  |  |  |  | Ac-[dPhe(4-I)]R[2Nal][d2Nal]-NH2
 | 40% | > 100 µM |  | 5.7 |  | 30% | 40% |  |  |  |  |  | Ac-[d2Nal]RW[d2Nal]-NH2
> 100 µM | 25% |  | > 100 µM | < 5.5 | < 5.5 |  |  |  |  |  |  |  | Ac-DNal(2’)-DNal(2’)-DPhe(pI)-Arg-NH2 (peptide)
> 100 µM | 20% | 0.8 µM | > 100 µM |  | 5.8 |  |  |  |  |  |  |  | Ac-DPhe(pI)-DNal(2’)-Nal(2’)-Arg-NH2 (peptide)
 | 80% |  |  | 6.1 | 6.7 | 45% | 45% | 20% |  |  |  |  | Ac-DPhe(pI)-Arg-DNal(2’)-DNal(2’)-NH2 (peptide)
> 100 µM |  | > 100 µM | > 100 µM |  |  |  |  |  |  |  | > 100 µM |  | Ac-DPhe(pI)-DNal(2’)-DPhe(pI)-DLys-NH2 (peptide)
> 100 µM |  | > 100 µM | > 100 µM | 6.9 | 8.5 |  |  |  |  |  | 0.22 µM |  | Ac-DNal(2’)-Arg-DPhe(pI)-DLys-NH2 (peptide)
 | 45% |  |  | < 5.5 | < 5.5 | 60% | 35% | 45% |  |  |  |  | Ac-[d2Nal][d2Nal]WR-NH2
 | 40% |  |  |  | 6.7 | 30% | 30% | 25% |  |  |  |  | Ac-DNal(2’)-Arg-Nal(2’)-DNal(2’)-NH2 (peptide)
